Consider one substance from patent US20090312249A1.

In assay [1] the target is MD-2 (myeloid differentiation protein-2) (UniProt Q9Y6Y9). The experiment in a line: SPR (BIAcore 3000), TFL amine-coupled on CM5 chip, MD-2 8-250 nM as analyte, 1:1 Langmuir model, 25 C.
The target is the same in assay [2]. Description: SPR (BIAcore 3000): TFL amine-coupled on a CM5 chip, MD-2 at 8 to 250 nM as analyte, 25 C, 1:1 Langmuir fit. (In general: SPR reads the build-up and loss of mass on a sensor chip optically.)

Sequence of UniProt Q9Y6Y9 (Q9Y6Y9 19-160 limits assumed): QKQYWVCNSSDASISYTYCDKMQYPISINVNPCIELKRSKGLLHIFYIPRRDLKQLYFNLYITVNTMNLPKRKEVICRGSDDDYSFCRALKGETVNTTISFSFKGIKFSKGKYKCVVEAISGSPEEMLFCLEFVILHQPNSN

One may read the Kd as the concentration at which binding is half-saturated. Read a low Kd as tighter binding. A word on the koff: it is the first-order rate constant of dissociation. The low end stands for slow dissociation, the high end for fast dissociation. As usually defined, the kon is the second-order rate constant of association. A higher kon goes with fast association. As to “TFL (Fc-tagged hTLR4 full-length ectodomain) (Fc fusion)”, the dissociation constant Kd in assay [1] was 81 nM. For the same substance, in assay [2], the Kd was determined as 81.1 nM, the dissociation rate constant (koff) came out at 0.00187 s⁻¹ and the on-rate constant (kon) was determined as 23100 M⁻¹ s⁻¹.
